Residue numbers refer to the chain shown, from its start. Names may count otherwise.
B1: Q306P (protein)
chain: MQLRNPELHLGCALALRFLALVSWDIPGARALDNGLARTPTMGWLHWERFMCNLDCQEEPDSCISEKLFMEMAELMVSEGWKDAGYEYLCIDDCWMAPQRDSEGRLQADPQRFPHGIRQLANYVHSKGLKLGIYADVGNKTCAGFPGSFGYYDIDAQTFADWGVDLLKFDGCYCDSLENLADGYKHMSLALNRTGRSIVYSCEWPLYMWPFQKPNYTEIRQYCNHWRNFADIDDSWKSIKSILDWTSFNQERIVDVAGPGGWNDPDMLVIGNFGLSWNQQVTQMALWAIMAAPLFMSNDLRHISPPAKALLQDKDVIAINQDPLGKQGYQLRQGDNFEVWERPLSGLAWAVAMINRQEIGGPRSYTIAVASLGKGVACNPACFITQLLPVKRKLGFYEWTSRLRSHINPTGTVLLQLENTMQMSLKDLL
B2: A307D (protein)
chain: B1 chain with P306Q, A307D
B3: A307G (protein)
chain: B1 chain with P306Q, A307G
B4: A307P (protein)
chain: B1 chain with P306Q, A307P
B5: A307S (protein)
chain: B1 chain with P306Q, A307S
B6: A307V (protein)
chain: B1 chain with P306Q, A307V
B7: K308I (protein)
chain: B1 chain with P306Q, K308I
B8: K308Q (protein)
chain: B1 chain with P306Q, K308Q

system: mutant form of α-Gal A expressed in HEK-293 cells; test: HEK assay (GLP HEK / Migalastat Amenability Assay): α-Gal A activity in lysates of transiently transfected HEK-293 cells incubated with or without 10 μM migalastat; type: cell-based, human; conditions: 10 μM migalastat versus baseline
How it was run: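 Activity reported as 4-MU released (nmol/mg/hr), mean±SEM, from lysates of transiently transfected HEK-293 cells expressing mutant α-Gal A, cultured with or without 10 μM migalastat.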

Row | Molecule | Absolute increase (% WT) | Relative increase
1 | B1 | 30.0 % WT | 1.5
2 | B2 | 35.9 % WT | 1.3
3 | B3 | 23.4 % WT | 1.5
4 | B4 | 12.3 % WT | 1.4
5 | B5 | 27.7 % WT | 1.3
6 | B6 | 34.7 % WT | 2.3
7 | B7 | 24.2 % WT | 1.5
8 | B8 | 30.0 % WT | 1.5

same assay, conditions: absence of migalastat; percentage of baseline wild-type α-Gal A activity; mean ± SEM

Row | Molecule | Baseline α-Gal A activity (% WT)
9 | B1 | 57.4 ± 2.8 % WT
10 | B2 | 126 ± 5.7 % WT
11 | B3 | 52.9 ± 2.5 % WT
12 | B4 | 32.8 ± 1.7 % WT
13 | B5 | 85.9 ± 4.5 % WT
14 | B6 | 27.5 ± 2 % WT
15 | B7 | 48.6 ± 3.9 % WT
16 | B8 | 59.1 ± 3.8 % WT

same assay, conditions: lysates of HEK-293 cells transiently transfected with the mutant form, incubated 5 days in absence of migalastat; mean ± SEM

Row | Molecule | Baseline α-Gal A activity
17 | B1 | 19933 ± 1648 nmol/mg/h
18 | B2 | 42522 ± 2430 nmol/mg/h
19 | B3 | 17871 ± 1029 nmol/mg/h
20 | B4 | 11388 ± 905 nmol/mg/h
21 | B5 | 29300 ± 2037 nmol/mg/h
22 | B6 | 11478 ± 1200 nmol/mg/h
23 | B7 | 19195 ± 1555 nmol/mg/h
24 | B8 | 24208 ± 1996 nmol/mg/h

same assay, conditions: lysates of HEK-293 cells transiently transfected with the mutant form, incubated 5 days with 10 μM migalastat; mean ± SEM

Row | Molecule | 10 μM migalastat α-Gal A activity
25 | B1 | 29495 ± 1671 nmol/mg/h
26 | B2 | 54502 ± 3031 nmol/mg/h
27 | B3 | 26053 ± 1631 nmol/mg/h
28 | B4 | 15572 ± 1124 nmol/mg/h
29 | B5 | 38558 ± 2274 nmol/mg/h
30 | B6 | 25989 ± 2015 nmol/mg/h
31 | B7 | 29251 ± 2026 nmol/mg/h
32 | B8 | 35663 ± 2680 nmol/mg/h

same assay, conditions: with 10 μM migalastat, 5 days; percentage of baseline wild-type α-Gal A activity; mean ± SEM

Row | Molecule | 10 μM migalastat α-Gal A activity (% WT)
33 | B1 | 87.5 ± 4.8 % WT
34 | B2 | 161.9 ± 8.6 % WT
35 | B3 | 76.3 ± 3.1 % WT
36 | B4 | 45.2 ± 2.1 % WT
37 | B5 | 113.6 ± 5.2 % WT
38 | B6 | 62.2 ± 3.3 % WT
39 | B7 | 72.7 ± 3.6 % WT
40 | B8 | 89.1 ± 5.5 % WT
